Assay [1] deals with FcRn (neonatal Fc receptor) immobilised in the FcRn binding affinity measurement (UniProt P55899). Kind of assay: BLI.
Assay [2] deals with human neonatal Fc receptor (FcRn heavy chain FCGRT with B2M) on MDCK-hFcRn cells (human) (UniProt P55899). Kind of assay: flow cytometry on cells.

The substance Adalimumab (antibody) registered a Kd in assay [1] of 1180 nM. Also, in assay [2], the MFI (binding to MDCK-hFcRn cells) is 183 MFI.
In turn, Basiliximab (antibody) came in with an MFI (binding to MDCK-hFcRn cells) in assay [2] of 203 MFI.
Regarding Emicizumab (bispecific antibody), the Kd in assay [1] came to 1230 nM.
Infliximab (antibody) yielded an MFI (binding to MDCK-hFcRn cells) in assay [2] of 128 MFI.
Ocrelizumab (antibody) yielded an MFI (binding to MDCK-hFcRn cells) in assay [2] of 101 MFI.
As for Rituximab (antibody), the dissociation constant (Kd) in assay [1] worked out at 460 nM.
In assay [2], “anti-herpes simplex virus glycoprotein D (gD)-YTE antibody” showed an MFI (cell binding to MDCK-hFcRn cells) of 1150 MFI.
